From publication PMC12428694, “A New β-Galactosidase from Pseudomonas tritici SWRI145 for Efficient Bioproduction of Galactooligosaccharides” (Foods, 2025)

Test system: O=[N+]([O-])c1ccccc1O[C@@H]1O[C@H](CO)[C@H](O)[C@H](O)[C@H]1O
Assay: purified protein
Assay type: biochemical, Pseudomonas tritici
Settings: 50 mM HEPES pH 7.5, 50 °C, 5 min, 0.3-60 mM ONPG, 1 mM Mg2+ probably present

Pstr β-galactosidase (Pseudomonas tritici)
Km: 3000 µM
kcat: 643.98 s⁻¹
